Measured values as given in PMC4978918.

Assays:
Assay in all cases: co-IP; anti-V5 IP of Scc4-3V5 or scc4-RID-3V5 from yeast extracts, cells at midlog phase in YPD at 23°, IPH50 buffer (50 mM Tris pH 8.0, 50 mM NaCl, 5 mM EDTA, 0.5% NP-40), 4°; blot with anti-Myc (Scc2) or anti-HA (Smc1)
[1] = target: scc4-L490ins-3V5 (S. cerevisiae) (UniProt P40090)
[2] = target: scc4-V485ins-3V5 (S. cerevisiae) (UniProt P40090)
[3] = target: scc4-L305ins-3V5 (S. cerevisiae) (UniProt P40090)
[4] = target: scc4-S505ins-3V5 (S. cerevisiae) (UniProt P40090)

Measured: co-precipitation, percent of the wild-type level

B1: Scc2-12Myc (natural protein)
chain: MSYPGKDKNIPGRIIEALEDLPLSYLVPKDGLAALVNAPMRVSLPFDKTIFTSADDGRDVNINVLGTANSTTSSIKNEAEKERLVFKRPSNFTSSANSVDYVPTNFLEGLSPLAQSVLSTHKGLNDSINIEKKSEIVSRPEAKHKLESVTSNAGNLSFNDNSSNKKTKTSTGVTMTQANLAEQYLNDLKNILDIVGFDQNSAEIGNIEYWLQLPNKKFVLTTNCLTKLQMTIKNITDNPQLSNSIEITWLLRLLDVMVCNIKFSKSSLKMGLDDSMLRYIALLSTIVLFNIFLLGKNDSNLHRESYIMEPVNFLSDLIESLKILTIEYGSLKIEFDTFQEALELLPKYIRNGPFLDDNVTAKLVYIFSDLLMNNDIEATTNIQFQSFWDNVKRISSDILVSLFGSFDQQRGFIIEELLSHIEKLPTKRIQKKLRKVGNQNIYITDFTFTLMSMLENINCYSFCNQMKDIAPENIDLLKNEYKKQEEFLFNIVEHINDTILERFFKNPSALRYVIDNFVQDLLLLISSPQWPVTEKILSSLLKRLLSVYSPSMQVSANIETICLQLIGNIGSTIFDIKCSTRDHEDNNLIKMINYPETLPHFFKSFEECIAYNETIKCRRSATRFLWNLRLGTILILEEYTKDAKEQIITVDNELKKILEQIKDGGLGPELENREADFSTIKLDYFSILHAFELLNLYDPYLKLILSLLAKDKIKLRSTAIKCLSMLASKDKVILSNPMVKETIHRRLNDSSASVKDAILDLVSINSSYFEFYQQINNNYNDDSIMVRKHVLRINEKMYDETNDIVTKVYVIARILMKIEDEEDNIIDMARLILLNRWILKVHEVLDQPEKLKEISSSVLLVMSRVAIMNEKCSQLFDLFLNFYLLNKEAHSKEAYDKITHVLTILTDFLVQKIVELNSDDTNEKNSIVDKQNFLNLLAKFADSTVSFLTKDHITALYPYMVSDEKSDFHYYILQVFRCTFEKLANFKQKFLYDLETTLLSRLPKMNVREIDEAMPLIWSVATHRHDTARVAKACSSCLSHLHPYINKANNEEAAIVVDGKLQRLIYLSTGFARFCFPKPSNDKIAFLQEGETLYEHITKCLLVLSKDKITHVIRRVAVKNLTKLCGNHPKLFNSRHVLHLLDKEFQSDQLDIKLVILESLYDLFLLEERKSVRNTGVNSTLSSNSILKKKLLKTNRVEFANDGVCSALATRFLDNILQLCLLRDLKNSLVAIRLLKLILKFGYTNPSHSIPTVIALFASTSQYIRHVAYELLEDLFEKYETLVFSSLSRGVTKAIHYSIHTDEKYYYKHDHFLSLLEKLCGTGKKNGPKFFKVLKRIMQSYLDDITDLTSTNSSVQKSIFVLCTNISNITFVSQYDLVSLLKTIDLTTDRLKEVIMDEIGDNVSSLSVSEEKLSGIILIQLSLQDLGTYLLHLYGLRDDVLLLDIVEESELKNKQLPAKKPDISKFSAQLENIEQYSSNGKLLTYFRKHVKDT
50%: all assays above
